Laboratory results published in US20220281980A1 (Bristol-Myers Squibb, published 2022).

T1: human MICA/B endogenously expressed on 786-O cells (MICA allele *008) (human, UniProt Q29983 24-331)
T1 construct: it speaks of MICA/B, so MICB may be present as well; also called 786-0
T1 chain: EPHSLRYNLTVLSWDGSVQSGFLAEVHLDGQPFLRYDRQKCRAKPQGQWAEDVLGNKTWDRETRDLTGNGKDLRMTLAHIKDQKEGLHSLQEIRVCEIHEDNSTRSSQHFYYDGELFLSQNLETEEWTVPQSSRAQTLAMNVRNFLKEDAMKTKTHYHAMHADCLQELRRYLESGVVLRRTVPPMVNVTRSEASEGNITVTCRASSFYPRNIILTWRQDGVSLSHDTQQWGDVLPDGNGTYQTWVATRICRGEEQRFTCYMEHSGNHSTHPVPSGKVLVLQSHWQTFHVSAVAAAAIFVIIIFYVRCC

T2: human MICA/B endogenously expressed on HeLa cells (MICA allele *008) (human, UniProt Q29983 24-331)
T2 construct: it speaks of MICA/B, so MICB may be present as well
T2 chain: T1 chain

T3: human MICA/B endogenously expressed on RPMI-8226 cells (human, UniProt Q29983 24-383)
T3 construct: whole, on cells
T3 sequence (looked up): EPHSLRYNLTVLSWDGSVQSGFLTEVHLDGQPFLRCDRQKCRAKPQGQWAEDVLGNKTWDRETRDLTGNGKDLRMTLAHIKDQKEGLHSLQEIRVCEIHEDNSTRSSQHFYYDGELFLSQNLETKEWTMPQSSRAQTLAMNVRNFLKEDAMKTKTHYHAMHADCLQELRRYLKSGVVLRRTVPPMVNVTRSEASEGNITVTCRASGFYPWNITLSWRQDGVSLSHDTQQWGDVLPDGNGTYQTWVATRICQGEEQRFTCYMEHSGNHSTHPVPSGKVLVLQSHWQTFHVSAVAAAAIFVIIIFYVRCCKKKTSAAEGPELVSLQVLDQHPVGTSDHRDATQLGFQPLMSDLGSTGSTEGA

T4: recombinant soluble human MICA*008 antigen (human, UniProt Q29983 24-307)
T4 construct: also called huIMICA-his allele *008; recombinant soluble MICA (allele 8)
T4 chain: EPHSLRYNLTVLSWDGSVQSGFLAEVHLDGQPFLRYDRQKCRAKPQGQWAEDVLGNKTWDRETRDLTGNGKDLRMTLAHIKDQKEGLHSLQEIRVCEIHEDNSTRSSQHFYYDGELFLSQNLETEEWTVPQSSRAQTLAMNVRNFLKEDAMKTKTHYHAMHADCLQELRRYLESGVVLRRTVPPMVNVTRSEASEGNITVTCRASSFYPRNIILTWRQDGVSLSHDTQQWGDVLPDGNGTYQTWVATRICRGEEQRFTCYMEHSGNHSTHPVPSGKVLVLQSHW

T5: human MICB expressed on transduced cells (human, UniProt Q29980 23-382)
T5 construct: also called MICB*005
T5 chain: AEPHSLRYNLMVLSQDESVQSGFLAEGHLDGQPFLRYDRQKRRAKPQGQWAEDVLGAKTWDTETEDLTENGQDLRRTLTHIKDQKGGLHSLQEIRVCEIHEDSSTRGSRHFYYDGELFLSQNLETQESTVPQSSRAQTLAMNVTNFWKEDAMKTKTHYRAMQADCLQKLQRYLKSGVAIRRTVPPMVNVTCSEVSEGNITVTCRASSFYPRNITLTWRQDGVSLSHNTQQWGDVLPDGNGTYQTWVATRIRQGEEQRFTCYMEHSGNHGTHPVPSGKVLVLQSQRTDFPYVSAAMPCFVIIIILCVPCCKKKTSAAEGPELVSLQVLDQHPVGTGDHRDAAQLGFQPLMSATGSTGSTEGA

T6: human MICA*004 expressed on CHO cells (human, UniProt Q29983 24-383)
T6 construct: also called MICA allele 004
T6 chain: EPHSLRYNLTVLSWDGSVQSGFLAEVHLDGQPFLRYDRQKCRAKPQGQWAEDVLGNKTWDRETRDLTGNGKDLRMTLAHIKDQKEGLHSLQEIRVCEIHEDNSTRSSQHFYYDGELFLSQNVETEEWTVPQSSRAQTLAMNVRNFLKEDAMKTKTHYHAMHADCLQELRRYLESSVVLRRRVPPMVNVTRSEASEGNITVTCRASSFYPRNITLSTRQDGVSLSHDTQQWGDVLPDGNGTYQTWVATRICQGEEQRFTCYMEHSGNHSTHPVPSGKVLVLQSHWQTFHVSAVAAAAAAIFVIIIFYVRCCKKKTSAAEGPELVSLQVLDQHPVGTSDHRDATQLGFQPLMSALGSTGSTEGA

B1: 24G11 (antibody, V domains shown)
VH: EVQLVQSGAEVKKPGESLKISCKGSGYSFTNYWIGWVRQMPGKGLEWLGIIHPGDSYTRYSPSFQGQVTISADKSISTAYLQWSSLKASDTAIYYCAREGIAATPFDYWGQGTLVTVSS
VL: EIVLTQSPATLSLSPGERATLSCRASQSVSSYLAWFQQKPGQAPRLLIYDASNRATGIPARFSGSGSGTDFTLTISSLEPEDFAVYYCQQRSNWPPTFGQGTKVEIK
notes: also called MICA.54; 24G11 (MICA.54)
B2: MICA.2 (antibody, human IgG1, kappa, V domains shown)
VH: EVQLVESGGGLVQPGGSLRLSCAASGFTFSTYSMNWVRQAPGKGLEWVSYISYRSRTIYYADSVKGRFTISRDNARNSLYLQMNSLRDEDTAVYYCARWGYGSGGFDYWGQGTLVTVSS
VL: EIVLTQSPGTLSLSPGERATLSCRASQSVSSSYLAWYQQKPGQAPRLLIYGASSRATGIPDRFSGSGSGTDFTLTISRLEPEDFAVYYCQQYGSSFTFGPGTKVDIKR
notes: 3F5 variable regions on human IgG1f and human kappa constant regions, made in CHO-S cells; also called 3F5; recombinant antibody of 3F5
B3: 19G6 (antibody, V domains shown)
VH: QVQLVESGGGVVQPGRSLRLSCAASGFTFSNYAMHWVRQAPGEGLEWVALIWYDGSNKFYGDSVKGRFTISRDNSKNTLYLQMNSLSAEDTAVYYCAREGSGHYWGQGTLVTVSS
VL: AIQLTQSPSSLSASVGDRVTITCRASQGISSALAWYQQKPGKVPKSLIYDASSLESGVPSRFSGSGSGTDFTLTISSLQPEDFATYYCQQFNSYPITFGQGTRLEIK
notes: Hybridoma antibody from human IgG transgenic mice, parent of MICA.36; also called 19G6 mAb; hybridoma 19G6
B4: 71C2 (antibody, V domains shown)
VH: EVQLVESGGGLVQPGRSLRLSCAASGFTFNNYAMHWVRQAPGKGLEWVSGITWNSDSIGYADSVKGRFTISRDNAKNSLYLQMNSLRAEDTALYYCAKDSVLLWFGGMDVWGQGTTVTVSS
VL: not shown
notes: Hybridoma antibody
B5: MICA.36 (antibody, V domains shown)
VH: B3 VH
VL: B3 VL
notes: it says that the name implies no specific constant region; Radioiodinated in the Scatchard assay; also called MICA.36 antibody

Molecular target: T1, human MICA/B endogenously expressed on …
Test: flow cytometry, tumor cells with endogenous MICA/B

EC50 | Binder
147 nM | B1
4.95 nM | B2
1.37 nM | B3
13.8 nM | B4

Molecular target: T2, human MICA/B endogenously expressed on …
Test: flow cytometry, tumor cells with endogenous MICA/B

EC50 | Binder
192 nM | B1
1.74 nM | B2
1.76 nM | B3
10.2 nM | B4

Molecular target: T3, human MICA/B endogenously expressed on …
Test: flow cytometry, tumor cells with endogenous MICA/B

EC50 | Binder
104 nM | B1
41.9 nM | B2
3.89 nM | B3
36.9 nM | B4

Molecular target: T4, recombinant soluble human MICA*008 …
Test: BLI (Octet) sandwich binning on soluble MICA allele 8, row antibody captured; competitor (second antibody): MICA.38
Description: The binning experiments were performed on an Octet HTX instrument at 25° C. in HEPES buffered saline (10 mM HEPES pH 7.4, 150 mM NaCl, 0.05% v/v surfactant P20, and 1 mg/mL BSA). Anti-MICA/B antibodies and NKG2D-mFc were captured on anti-Fc tips and remaining capture sites were blocked with an excess of negative control IgG. Recombinant soluble MICA (allele 8) was bound and subsequent binding (“sandwiching”) of anti-MICA/B antibodies was tested.

simultaneous binding (0 = no, 1 = yes) | Binder
1 | B1
0 | B2
1 | B5

Molecular target: T5, human MICB expressed on transduced cells
Test: saturation binding of 125I-labelled antibody on CHO-MICB cells, 12500 per well; fit of total binding, non-specific binding not subtracted; x axis without unit
Description: (§1) Nonspecific binding was determined by binding in the presence of a titration of a 100 fold molar excess of unlabeled antibody and was subtracted from total counts per minute (CPM) to calculate specific binding. A linear standard curve of ¹²⁵I-MICA.36 concentration versus CPM was used to extrapolate specific activity, maximal nM bound ¹²⁵I-MICA.36 and thereby calculate receptor number per cell.
Specific activity of the iodinated MICA.36 was determined by plotting antibody titrations against the associated CPMs in a standard curve (FIG. 7A). The specific activity was calculated to be 164,214 CPM in 1 nM of ¹²⁵I-MICA.36. The number of receptors per cell was calculated by the following equation: (Bmax)×(Avogadro's number)×(Assay Volume)/# of cells per well.

Kd of the total-binding curve | Binder
2.8 nM | B5

Molecular target: T7, cynomolgus monkey MICA/B clone #4 expressed on CHO cells (cynomolgus monkey)
T7 construct: whole, on cells; also called cyno#4; CHO-cyno MICA clone #4
Test: saturation binding of 125I-labelled antibody on CHO-MICA Cyno #4 cells, 25K per well; fit of total binding, non-specific binding not subtracted
Description: as §1

Kd of the total-binding curve | Binder
10.2 nM | B5

Molecular target: T6, human MICA*004 expressed on CHO cells
Test: flow cytometry, transfected CHO cells

EC50 | Binder
518 nM | B1
2.94 nM | B2
11.4 nM | B3
26.2 nM | B4
